Results on three molecules are retold here after patent CN114591436A (BIOLOGICAL ISLAND LABORATORY; UNIV SCIENCE AND TECHNOLOGY …, dated 2022).

For orientation: Kd means the constant that tells how readily two partners part at equilibrium. Low values mean higher affinity, high ones lower affinity.

B1: 单抗PGI_1G9 (VHH)
VHH: QVQLVQSGGGSAHLGGSLRLSCAASGFIFSDYYMAWVRQAPGKEREWVSEINTSGRTYYADSVKGRFTISRDNAKNTLYLQMDSLKPEDTAVYYCYVHRSSIFTNREYWGQGTQVTVSS
B2: 单抗PGI_2F1 (VHH)
VHH: QVQLVESGGGLVQTGDSLKLSCLASGRTFSSRAMGWFRQAPGKEREFVAAISTSGVLKYYAPSVKGRFTISRDNAKNTMYLEMNSPEPEDTAVYYCAANGPPFGAYWWPTAREYDAWGQGTQVTVSS
B3: 单抗PGI_1H10 (VHH)
VHH: QVQLVQSGGGLVQAGGSLRLSCVVSGFNFSSFDRYTMSWVRQIPGKGLEWVSAINGGGIKTAYADSVKGRFTISRDNAKNTVYLQMNDLKPADTAVYYCTFTRWLVRGDYWGQGTQVTVSS

This test deals with T1, 胃蛋白酶原I (Pepsinogen I) (Homo sapiens (Human), UniProt P0DJD7 63-388, limits assumed).
T1 construct: also called PGI; PG I
T1 sequence (P0DJD7 63-388 limits assumed): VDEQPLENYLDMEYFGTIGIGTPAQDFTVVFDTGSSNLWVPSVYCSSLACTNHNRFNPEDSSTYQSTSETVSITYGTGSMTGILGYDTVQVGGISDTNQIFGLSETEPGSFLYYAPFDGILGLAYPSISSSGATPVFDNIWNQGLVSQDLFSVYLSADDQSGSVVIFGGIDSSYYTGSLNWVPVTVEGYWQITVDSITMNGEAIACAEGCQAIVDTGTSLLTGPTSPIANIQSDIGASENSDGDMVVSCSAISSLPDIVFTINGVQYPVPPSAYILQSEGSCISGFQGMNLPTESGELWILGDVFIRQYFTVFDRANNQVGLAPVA
Briefly: ELISA, VHH-pIII in bacterial culture supernatant incubated with PGI antigen; kd derived from binding strength. (In general: An ELISA detects its analyte on a solid surface through an enzyme-linked reagent.)
In turn, B1 gave a Kd of 1030 nM. In turn, B2 yielded a Kd of 404 nM.

As to B3, the Kd turned out to be 123 nM.
